Measured values reported in patent publication US20200261490.

B1: human matriptase (protein)
chain: VVGGTDADEGEWPWQVSLHALGQGHICGASLISPNWLVSAAHCYIDDRGFRYSDPTQWTAFLGLHDQSQRSAPGVQERRLKRIISHPFFNDFTFDYDIALLELEKPAEYSSMVRPICLPDASHVFPAGKAIWVTGWGHTQYGGTGALILQKGEIRVINQTTCENLLPQQITPRMMCVGFLSGGVDSCQGDSGGPLSSVEADGRIFQAGVVSWGDGCAQRNKPGVYTRLPLFRDWIKENTGV
B2: human ADAM-10 (protein)
chain: TTSAEKNTCQLYIQTDHLFFKYYGTREAVIAQISSHVKAIDTIYQTTDFSGIRNISFMVKRIRINTTADEKDPTNPFRFPNIGVEKFLELNSEQNHDDYCLAYVFTDRDFDDGVLGLAWVGAPSGSSGGICEKSKLYSDGKKKSLNTGIITVQNYGSHVPPKVSHITFAHEVGHNFGSPHDSGTECTPGESKNLGQKENGNYIMYARATSGDKLNNNKFSLCSIRNISQVLEKKRNNCFVESGQPICGNGMVEQGEECDCGYSDQCKDECCFDANQPEGRKCKLKPGKQCSPSQGPCCTAQCAFKSKSEKCRDDSDCAREGICNGFTALCPASDPKPNFTDCNRHTQVCINGQCAGSICEKYGLEECTCASSDGKDDKELCHVCCMKKMDPSTCASTGSVQWSRHFSGRTITLQPGSPCNDFRGYCDVFMRCRLVDADGPLARLKKAIFSPELYENIAE
B3: human PAPP-A2 (pappalysin-2) (protein)
chain: PPEESNQNGGEGSYREAETFNSQVGLPILYFSGRRERLLLRPEVLAEIPREAFTVEAWVKPEGGQNNPAIIAGVFDNCSHTVSDKGWALGIRSGKDKGKRDARFFFSLCTDRVKKATILISHSRYQPGTWTHVAATYDGRHMALYVDGTQVASSLDQSGPLNSPFMASCRSLLLGGDSSEDGHYFRGHLGTLVFWSTALPQSHFQHSSQHSSGEEEATDLVLTASFEPVNTEWVPFRDEKYPRLEVLQGFEPEPEILSPLQPPLCGQTVCDNVELISQYNGYWPLRGEKVIRYQVVNICDDEGLNPIVSEEQIRLQHEALNEAFSRYNISWQLSVHQVHNSTLRHRVVLVNCEPSKIGNDHCDPECEHPLTGYDGGDCRLQGRCYSWNRRDGLCHVECNNMLNDFDDGDCCDPQVADVRKTCFDPDSPKRAYMSVKELKEALQLNSTHFLNIYFASSVREDLAGAATWPWDKDAVTHLGGIVLSPAYYGMPGHTDTMIHEVGHVLGLYHVFKGVSERESCNDPCKETVPSMETGDLCADTAPTPKSELCREPEPTSDTCGFTRFPGAPFTNYMSYTDDNCTDNFTPNQVARMHCYLDLVYQQWTESRKPTPIPIPPMVIGQTNKSLTIHWLPPISGVVYDRASGSLCGACTEDGTFRQYVHTASSRRVCDSSGYWTPEEAVGPPDVDQPCEPSLQAWSPEVHLYHMNMTVPCPTEGCSLELLFQHPVQADTLTLWVTSFFMESSQVLFDTEILLENKESVHLGPLDTFCDIPLTIKLHVDGKVSGVKVYTFDERIEIDAALLTSQPHSPLCSGCRPVRYQVLRDPPFASGLPVVVTHSHRKFTDVEVTPGQMYQYQVLAEAGGELGEASPPLNHIHGAPYCGDGKVSERLGEECDDGDLVSGDGCSKVCELEEGFNCVGEPSLCYMYEGDGICEPFERKTSIVDCGIYTPKGYLDQWATRAYSSHEDKKKCPVSLVTGEPHSLICTSYHPDLPNHRPLTGWFPCVASENETQDDRSEQPEGSLKKEDEVWLKVCFNRPGEARAIFIFLTTDGLVPGEHQQPTVTLYLTDVRGSNHSLGTYGLSCQHNPLIINVTHHQNVLFHHTTSVLLNFSSPRVGISAVALRTSSRIGLSAPSNCISEDEGQNHQGQSCIHRPCGKQDSCPSLLLDHADVVNCTSIGPGLMKCAITCQRGFALQASSGQYIRPMQKEILLTCSSGHWDQNVSCLPVDCGVPDPSLVNYANFSCSEGTKFLKRCSISCVPPAKLQGLSPWLTCLEDGLWSLPEVYCKLECDAPPIILNANLLLPHCLQDNHDVGTICKYECKPGYYVAESAEGKVRNKLLKIQCLEGGIWEQGSCIPVVCEPPPPVFEGMYECTNGFSLDSQCVLNCNQEREKLPILCTKEGLWTQEFKLCENLQGECPPPPSELNSVEYKCEQGYGIGAVCSPLCVIPPSDPVMLPENITADTLEHWMEPVKVQSIVCTGRRQWHPDPVLVHCIQSCEPFQADGWCDTINNRAYCHYDGGDCCSSTLSSKKVIPFAADCDLDECTCRDPKAEENQ
B4: human matrix metalloproteinase-2 (protein)
chain: APSPIIKFPGDVAPKTDKELAVQYLNTFYGCPKESCNLFVLKDTLKKMQKFFGLPQTGDLDQNTIETMRKPRCGNPDVANYNFFPRKPKWDKNQITYRIIGYTPDLDPETVDDAFARAFQVWSDVTPLRFSRIHDGEADIMINFGRWEHGDGYPFDGKDGLLAHAFAPGTGVGGDSHFDDDELWTLGEGQVVRVKYGNADGEYCKFPFLFNGKEYNSCTDTGRSDGFLWCSTTYNFEKDGKYGFCPHEALFTMGGNAEGQPCKFPFRFQGTSYDSCTTEGRTDGYRWCGTTEDYDRDKKYGFCPETAMSTVGGNSEGAPCVFPFTFLGNKYESCTSAGRSDGKMWCATTANYDDDRKWGFCPDQGYSLFLVAAHEFGHAMGLEHSQDPGALMAPIYTYTKNFRLSQDDIKGIQELYGASPDIDLGTGPTPTLGPVTPEICKQDIVFDGIAQIRGEIFFFKDRFIWRTVTPRDKPMGPLLVATFWPELPEKIDAVYEAPQEEKAVFFAGNEYWIYSASTLERGYPKPLTSLGLPPDVQRVDAAFNWSKNKKTYIFAGDKFWRYNEVKKKMDPGFPKLIADAWNAIPDNLDAVVDLQGGGHSYFFKGAYYLKLENQSLKSVKFGSIKSDWLGC
B5: recombinant human PAPP-A (pregnancy-associated plasma protein-A, pappalysin-1) (protein)
chain: EARGATEEPSPPSRALYFSGRGEQLRLRADLELPRDAFTLQVWLRAEGGQRSPAVITGLYDKCSYISRDRGWVVGIHTISDQDNKDPRYFFSLKTDRARQVTTINAHRSYLPGQWVYLAATYDGQFMKLYVNGAQVATSGEQVGGIFSPLTQKCKVLMLGGSALNHNYRGYIEHFSLWKVARTQREILSDMETHGAHTALPQLLLQENWDNVKHAWSPMKDGSSPKVEFSNAHGFLLDTSLEPPLCGQTLCDNTEVIASYNQLSSFRQPKVVRYRVVNLYEDDHKNPTVTREQVDFQHHQLAEAFKQYNISWELDVLEVSNSSLRRRLILANCDISKIGDENCDPECNHTLTGHDGGDCRHLRHPAFVKKQHNGVCDMDCNYERFNFDGGECCDPEITNVTQTCFDPDSPHRAYLDVNELKNILKLDGSTHLNIFFAKSSEEELAGVATWPWDKEALMHLGGIVLNPSFYGMPGHTHTMIHEIGHSLGLYHVFRGISEIQSCSDPCMETEPSFETGDLCNDTNPAPKHKSCGDPGPGNDTCGFHSFFNTPYNNFMSYADDDCTDSFTPNQVARMHCYLDLVYQGWQPSRKPAPVALAPQVLGHTTDSVTLEWFPPIDGHFFERELGSACHLCLEGRILVQYASNASSPMPCSPSGHWSPREAEGHPDVEQPCKSSVRTWSPNSAVNPHTVPPACPEPQGCYLELEFLYPLVPESLTIWVTFVSTDWDSSGAVNDIKLLAVSGKNISLGPQNVFCDVPLTIRLWDVGEEVYGIQIYTLDEHLEIDAAMLTSTADTPLCLQCKPLKYKVVRDPPLQMDVASILHLNRKFVDMDLNLGSVYQYWVITISGTEESEPSPAVTYIHGSGYCGDGIIQKDQGEQCDDMNKINGDGCSLFCRQEVSFNCIDEPSRCYFHDGDGVCEEFEQKTSIKDCGVYTPQGFLDQWASNASVSHQDQQCPGWVIIGQPAASQVCRTKVIDLSEGISQHAWYPCTISYPYSQLAQTTFWLRAYFSQPMVAAAVIVHLVTDGTYYGDQKQETISVQLLDTKDQSHDLGLHVLSCRNNPLIIPVVHDLSQPFYHSQAVRVSFSSPLVAISGVALRSFDNFDPVTLSSCQRGETYSPAEQSCVHFACEKTDCPELAVENASLNCSSSDRYHGAQCTVSCRTGYVLQIRRDDELIKSQTGPSVTVTCTEGKWNKQVACEPVDCSIPDHHQVYAASFSCPEGTTFGSQCSFQCRHPAQLKGNNSLLTCMEDGLWSFPEALCELMCLAPPPVPNADLQTARCRENKHKVGSFCKYKCKPGYHVPGSSRKSKKRAFKTQCTQDGSWQEGACVPVTCDPPPPKFHGLYQCTNGFQFNSECRIKCEDSDASQGLGSNVIHCRKDGTWNGSFHVCQEMQGQCSVPNELNSNLKLQCPDGYAIGSECATSCLDHNSESIILPMNVTVRDIPHWLNPTRVERVVCTAGLKWYPHPALIHCVKGCEPFMGDNYCDAINNRAFCNYDGGDCCTSTVKTKKVTPFPMSCDLQGDCACRDPQAQEHSRKDLRGYSHG

Legend:
[1] = target: recombinant human stanniocalcin 2, C-terminally myc-his-tagged
[2] = target: recombinant human stanniocalcin 1, C-terminally myc-his-tagged

| Protein | cleavage of 125I-IGFBP-5 by the proteinase with a 10-fold molar excess of STC, 8 h preincubation [1] | cleavage of 125I-IGFBP-5 by the proteinase with a 10-fold molar excess of STC [2] | also measured |
| --- | --- | --- | --- |
| B1 | None of the proteinases tested was inhibited by STC1, or by STC2 following incubation | None of the proteinases tested was inhibited by STC1, or by STC2 following incubation | – |
| B2 | None of the proteinases tested was inhibited by STC1, or by STC2 following incubation | None of the proteinases tested was inhibited by STC1, or by STC2 following incubation | – |
| B3 | – | – | cleavage of 125I-IGFBP-5 by PAPP-A2 [1]: both STCs were able to partially inhibit PAPP-A2 (pappalysin-2); cleavage of 125I-IGFBP-5 by PAPP-A2 [2]: both STCs were able to partially inhibit PAPP-A2 (pappalysin-2) |
| B4 | None of the proteinases tested was inhibited by STC1, or by STC2 following incubation | None of the proteinases tested was inhibited by STC1, or by STC2 following incubation | – |
| B5 | – | – | PAPP-A cleavage of IGFBP-4 with purified STC added at the beginning of the cleavage reaction [1]: in this experiment, no inhibitory effect of STC2 was observed; PAPP-A mediated cleavage of 125I-IGFBP-4 after overnight pre-incubation [1]: the presence of STC2 fully inhibited PAPP-A mediated IGFBP-4 cleavage; PAPP-A proteolytic activity towards IGFBP-4 after 16 h incubation [1]: after 16 hours of incubation with STC2, PAPP-A showed no activity; PAPP-A cleavage of IGFBP-4 with purified STC added at the beginning of the cleavage reaction [2]: STC1 still inhibited PAPP-A |
